Test results reported in IntAct's records for PubMed 17581628.

B1: Ras-related protein Rab-5A (Homo sapiens), P20339 (parent)
chain: MASRGATRPNGPNTGNKICQFKLVLLGESAVGKSSLVLRFVKGQFHEFQESTIGAAFLTQTVCLDDTTVKFEIWDTAGQERYHSLAPMYYRGAQAAIVVYDITNEESFARAKNWVKELQRQASPNIVIALSGNKADLANKRAVDFQEAQSYADDNSLLFMETSAKTSMNVNEIFMAIAKKLPKNEPQNPGANSARGRGVDLTEPTQPTRNQCCSN
partner: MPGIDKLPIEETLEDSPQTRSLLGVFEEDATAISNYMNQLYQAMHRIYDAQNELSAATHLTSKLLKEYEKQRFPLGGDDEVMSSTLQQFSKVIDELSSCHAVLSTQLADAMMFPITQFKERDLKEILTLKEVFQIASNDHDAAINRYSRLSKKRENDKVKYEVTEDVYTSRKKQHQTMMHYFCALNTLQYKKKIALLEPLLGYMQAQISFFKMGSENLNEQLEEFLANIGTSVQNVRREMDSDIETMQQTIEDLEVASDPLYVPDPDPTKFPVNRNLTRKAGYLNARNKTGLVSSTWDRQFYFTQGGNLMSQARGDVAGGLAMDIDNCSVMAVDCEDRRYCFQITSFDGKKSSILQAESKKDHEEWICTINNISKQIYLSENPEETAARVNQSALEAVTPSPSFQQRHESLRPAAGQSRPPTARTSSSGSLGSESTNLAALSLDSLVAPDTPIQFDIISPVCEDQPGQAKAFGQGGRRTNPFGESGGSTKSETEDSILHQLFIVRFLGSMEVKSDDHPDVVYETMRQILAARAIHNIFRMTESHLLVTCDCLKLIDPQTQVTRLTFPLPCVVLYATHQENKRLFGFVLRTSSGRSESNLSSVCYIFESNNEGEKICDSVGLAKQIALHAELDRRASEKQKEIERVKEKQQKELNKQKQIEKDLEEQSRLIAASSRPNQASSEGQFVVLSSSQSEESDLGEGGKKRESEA
B2: DCC-interacting protein 13-alpha (Homo sapiens), Q9UKG1 (parent)
chain: B1 partner

Variants of: B1
Conditions: with dp13a_human APPL1, Q9UKG1
For MASRGATRPNGPNTGNKICQFKLVLLGESAVGKSSLVLRFVKGQFHEFQESTIGAAFLTQTVCLDDTTVKFEIRDTAGQERYHSLAPMYYRGAQAAIVVYDITNEESFARAKNWVKELQRQASPNIVIALSGNKADLANKRAVDFQEAQSYADDNSLLFMETSAKTSMNVNEIFMAIAKKLPKNEPQNPGANSARGRGVDLTEPTQPTRNQCCSN [W74R], the “effect of a mutation on the interaction” value was “disrupting interaction”.

Variants of: B1
Conditions: with dp13a_human APPL1, Q9UKG1
Remark: another data set of the same source
With MASRGATRPNGPNTGNKICQFKLVLLGESAVGKSSLVLRFVKGQFHENQESTIGAAFLTQTVCLDDTTVKFEIWDTAGQERYHSLAPMYYRGAQAAIVVYDITNEESFARAKNWVKELQRQASPNIVIALSGNKADLANKRAVDFQEAQSYADDNSLLFMETSAKTSMNVNEIFMAIAKKLPKNEPQNPGANSARGRGVDLTEPTQPTRNQCCSN [F48N] the “effect of a mutation on the interaction” value was “decreasing interaction”.

Variants of: B1
Conditions: with dp13a_human APPL1, Q9UKG1
Remark: another data set of the same source
In the case of MASRGATRPNGPNTGNKICQFKLVLLGESAVGKSSLVLRFVKGQFDEFQESTIGAAFLTQTVCLDDTTVKFEIWDTAGQERYHSLAPMYYRGAQAAIVVYDITNEESFARAKNWVKELQRQASPNIVIALSGNKADLANKRAVDFQEAQSYADDNSLLFMETSAKTSMNVNEIFMAIAKKLPKNEPQNPGANSARGRGVDLTEPTQPTRNQCCSN [H46D], the “effect of a mutation on the interaction” value is reported as “disrupting interaction”.

Variants of: B1
Conditions: with dp13a_human APPL1, Q9UKG1
Remark: another data set of the same source
MASRGATRPNGPNTGNKICQFKLVLLGESAVGKSSLVLRFVKGQFHEFQESTIGAAFLTQTVCLDDTTVKFEIWDTAGQERYHSLAPSYYRGAQAAIVVYDITNEESFARAKNWVKELQRQASPNIVIALSGNKADLANKRAVDFQEAQSYADDNSLLFMETSAKTSMNVNEIFMAIAKKLPKNEPQNPGANSARGRGVDLTEPTQPTRNQCCSN [M88S] was tested, and the “effect of a mutation on the interaction” value was “decreasing interaction”.

Variants of: B1
Conditions: with dp13a_human APPL1, Q9UKG1
Remark: another data set of the same source
In the case of MASRGATRPNGPNTGNKICQFKLVLLGESAVGKSSLVLRFVEGQFHEFQESTIGAAFLTQTVCLDDTTVKFEIWDTAGQERYHSLAPMYYRGAQAAIVVYDITNEESFARAKNWVKELQRQASPNIVIALSGNKADLANKRAVDFQEAQSYADDNSLLFMETSAKTSMNVNEIFMAIAKKLPKNEPQNPGANSARGRGVDLTEPTQPTRNQCCSN [K42E], the “effect of a mutation on the interaction” value is reported as “decreasing interaction”.

Variants of: B1
Conditions: with dp13a_human APPL1, Q9UKG1
Remark: another data set of the same source
MASRGATRPNGPNTGNKICQFKLVLLGESAVGKSSLVLRFVKGQFHEFQESTIGAAFLTQTVCLDDTTVKFEIWDTAGQERYHSLAPMRYRGAQAAIVVYDITNEESFARAKNWVKELQRQASPNIVIALSGNKADLANKRAVDFQEAQSYADDNSLLFMETSAKTSMNVNEIFMAIAKKLPKNEPQNPGANSARGRGVDLTEPTQPTRNQCCSN [Y89R] was tested, and the “effect of a mutation on the interaction” value was “decreasing interaction”.

Variants of: B1
Conditions: with dp13a_human APPL1, Q9UKG1
Remark: another data set of the same source
With MASRGATRPNGPNTGNKICQFKLVLLGESAVGKSSLVLRFVKGQFHEFQESTIGAAFLTQTVCLDDTTVKFEIWDTAGQERYHSRAPMYYRGAQAAIVVYDITNEESFARAKNWVKELQRQASPNIVIALSGNKADLANKRAVDFQEAQSYADDNSLLFMETSAKTSMNVNEIFMAIAKKLPKNEPQNPGANSARGRGVDLTEPTQPTRNQCCSN [L85R] the “effect of a mutation on the interaction” value was “disrupting interaction”.

Variants of: B2
Conditions: with rab5a_human RAB5A
V25D was tested, and the “effect of a mutation on the interaction” value was “decreasing interaction”.

Variants of: B2
Conditions: with rab21_human RAB21, Q9UL25
Sequence of rab21_human RAB21, Q9UL25 (Q9UL25 whole entry): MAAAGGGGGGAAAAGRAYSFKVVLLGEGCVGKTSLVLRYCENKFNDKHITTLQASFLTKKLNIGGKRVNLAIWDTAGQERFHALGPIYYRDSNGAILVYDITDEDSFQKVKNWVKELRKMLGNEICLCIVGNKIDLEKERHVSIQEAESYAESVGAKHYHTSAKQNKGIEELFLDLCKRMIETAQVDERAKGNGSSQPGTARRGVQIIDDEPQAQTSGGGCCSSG
For V25D, the “effect of a mutation on the interaction” value was “decreasing interaction”.

Variants of: B2
Conditions: with rab21_human RAB21, Q9UL25
Remark: another data set of the same source
For D348K, the “effect of a mutation on the interaction” value was “disrupting interaction”.

Variants of: B2
Conditions: with rab21_human RAB21, Q9UL25
Remark: another data set of the same source
For E28K, the “effect of a mutation on the interaction” value was “decreasing interaction”.

Variants of: B2
Conditions: with rab21_human RAB21, Q9UL25
Remark: another data set of the same source
In the case of G319R, the “effect of a mutation on the interaction” value is reported as “disrupting interaction”.

Variants of: B2
Conditions: with rab5a_human RAB5A
Remark: another data set of the same source
With G319R the “effect of a mutation on the interaction” value was “disrupting interaction”.

Variants of: B2
Conditions: with rab5a_human RAB5A
Remark: another data set of the same source
In the case of A318D, the “effect of a mutation on the interaction” value is reported as “disrupting interaction”.

Variants of: B2
Conditions: with rab21_human RAB21, Q9UL25
Remark: another data set of the same source
For D324A, the “effect of a mutation on the interaction” value was “disrupting interaction”.

Variants of: B2
Conditions: with rab5a_human RAB5A
Remark: another data set of the same source
For D324A, the “effect of a mutation on the interaction” value was “disrupting interaction”.

Variants of: B2
Conditions: with rab5a_human RAB5A
Remark: another data set of the same source
For N308D, the “effect of a mutation on the interaction” value was “disrupting interaction”.

Variants of: B2
Conditions: with rab21_human RAB21, Q9UL25
Remark: another data set of the same source
In the case of N308D, the “effect of a mutation on the interaction” value is reported as “disrupting interaction”.

Variants of: B2
Conditions: with rab5a_human RAB5A
Remark: another data set of the same source
M310K was tested, and the “effect of a mutation on the interaction” value was “disrupting interaction”.

Variants of: B2
Conditions: with rab21_human RAB21, Q9UL25
Remark: another data set of the same source
M310K was tested, and the “effect of a mutation on the interaction” value was “disrupting interaction”.

Variants of: B2
Conditions: with rab21_human RAB21, Q9UL25
Remark: another data set of the same source
L321D was tested, and the “effect of a mutation on the interaction” value was “decreasing interaction”.

Variants of: B2
Conditions: with rab5a_human RAB5A
Remark: another data set of the same source
For L321D, the “effect of a mutation on the interaction” value was “disrupting interaction”.

Variants of: B2
Conditions: with rab21_human RAB21, Q9UL25
Remark: another data set of the same source
D316R was tested, and the “effect of a mutation on the interaction” value was “disrupting interaction”.
